Reference: the supplement of paper PMC5998384

Legend:
HeLa Kyoto [1] = experiment: solubility in G1/S (NP-40 vs SDS abundance) (log2 ratio); higher = more soluble; conditions: cell cycle stage: G1/S
HeLa Kyoto [2] = experiment: melting temperature (median over replicates), in situ; higher = more thermally stable
HeLa Kyoto [3] = experiment: thermal stability score vs G1/S (z-score of summed log2 fold changes over temperatures); higher = more thermally stable than in G1/S
HeLa Kyoto [4] = experiment: solubility change mitosis vs G1/S (difference of NP-40 vs SDS log2 ratios) (log2 ratio difference); higher = more soluble in mitosis
[5] = cell cycle stage: early G1 (4.5 h after nocodazole release)
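For melting temperature (median over replicates), in situ in this document: HeLa Kyoto cells synchronized by double thymidine or nocodazole block, proteins quantified by TMT10plex mass spectrometry, three independent biological replicates.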
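For solubility change mitosis vs G1/S (difference of NP-40 vs SDS log2 ratios) in this document: synchronized HeLa Kyoto cells (double thymidine block for G1/S, nocodazole release for mitosis), protein amounts in NP-40 versus SDS lysates quantified by mass spectrometry, three biological replicates.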
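For solubility in G1/S (NP-40 vs SDS abundance) in this document: HeLa Kyoto cells arrested at G1/S by double thymidine block, proteins quantified by TMT10plex mass spectrometry in mild NP-40 versus SDS extracts, three biological replicates.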
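For thermal stability score vs G1/S (z-score of summed log2 fold changes over temperatures) in this document: synchronized HeLa Kyoto cells, proteins quantified by TMT10plex mass spectrometry, three biological replicates, mitosis taken 0.5 h after nocodazole release, G1/S directly after double thymidine block.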

Sequence | solubility in G1/S (log2) (HeLa Kyoto [1]) | melting temperature (HeLa Kyoto [2]; cell cycle stage: G1/S) [°C] | melting temperature (HeLa Kyoto [2]; cell cycle stage: mitosis) [°C] | thermal stability score (HeLa Kyoto [3]; [5]) | thermal stability score (HeLa Kyoto [3]; cell cycle stage: mitosis) | solubility change mitosis (log2) (HeLa Kyoto [4])
MDTCGVGYVALGEAGPVGNMTVVDSPGQEVLNQLDVKTSSEMTSAEASVEMSLPTPLPGFEDSPDQRRLPPEQESLSRLEQPDLSSEMSKVSKPRASKPGRKRGGRTRKGPKRPQQPNPPSAPLVPGLLDQSNPLSTPMPKKRGRKSKAELLLLKLSKDLDRPESQSPKRPPEDFETPSGERPRRRAAQVALLYLQELAEELSTALPAPVSCPEGPKVSSPTKPKKIRQPAACPGGEEVDGAPRDEDFFLQVEAEDVEESEGPSESSSEPEPVVPRSTPRGSTSGKQKPHCRGMAPNGLPNHIMAPVWKCLHLTKDFREQKHSYWEFAEWIPLAWKWHLLSELEAAPYLPQEEKSPLFSVQREGLPEDGTLYRINRFSSITAHPERWDVSFFTGGPLWALDWCPVPEGAGASQYVALFSSPDMNETHPLSQLHSGPGLLQLWGLGTLQQESCPGNRAHFVYGIACDNGCIWDLKFCPSGAWELPGTPRKAPLLPRLGLLALACSDGKVLLFSLPHPEALLAQQPPDAVKPAIYKVQCVATLQVGSMQATDPSECGQCLSLAWMPTRPHQHLAAGYYNGMVVFWNLPTNSPLQRIRLSDGSLKLYPFQCFLAHDQAVRTLQWCKANSHFLVSAGSDRKIKFWDLRRPYEPINSIKRFLSTELAWLLPYNGVTVAQDNCYASYGLCGIHYIDAGYLGFKAYFTAPRKGTVWSLSGSDWLGTIAAGDISGELIAAILPDMALNPINVKRPVERRFPIYKADLIPYQDSPEGPDHSSASSGVPNPPKARTYTETVNHHYLLFQDTDLGSFHDLLRREPMLRMQEGEGHSQLCLDRLQLEAIHKVRFSPNLDSYGWLVSGGQSGLVRIHFVRGLASPLGHRMQLESRAHFNAMFQPSSPTRRPGFSPTSHRLLPTP [GTF3C2] | -0.18 | 46.5 | 49.5 | 2.79 | 6.24 | 0.119
MDTDLYDEFGNYIGPELDSDEDDDELGRETKDLDEMDDDDDDDDVGDHDDDHPGMEVVLHEDKKYYPTAEEVYGPEVETIVQEEDTQPLTEPIIKPVKTKKFTLMEQTLPVTVYEMDFLADLMDNSELIRNVTLCGHLHHGKTCFVDCLIEQTHPEIRKRYDQDLCYTDILFTEQERGVGIKSTPVTVVLPDTKGKSYLFNIMDTPGHVNFSDEVTAGLRISDGVVLFIDAAEGVMLNTERLIKHAVQERLAVTVCINKIDRLILELKLPPTDAYYKLRHIVDEVNGLISMYSTDENLILSPLLGNVCFSSSQYSICFTLGSFAKIYADTFGDINYQEFAKRLWGDIYFNPKTRKFTKKAPTSSSQRSFVEFILEPLYKILAQVVGDVDTSLPRTLDELGIHLTKEELKLNIRPLLRLVCKKFFGEFTGFVDMCVQHIPSPKVGAKPKIEHTYTGGVDSDLGEAMSDCDPDGPLMCHTTKMYSTDDGVQFHAFGRVLSGTIHAGQPVKVLGENYTLEDEEDSQICTVGRLWISVARYHIEVNRVPAGNWVLIEGVDQPIVKTATITEPRGNEEAQIFRPLKFNTTSVIKIAVEPVNPSELPKMLDGLRKVNKSYPSLTTKVEESGEHVILGTGELYLDCVMHDLRKMYSEIDIKVADPVVTFCETVVETSSLKCFAETPNKKNKITMIAEPLEKGLAEDIENEVVQITWNRKKLGEFFQTKYDWDLLAARSIWAFGPDATGPNILVDDTLPSEVDKALLGSVKDSIVQGFQWGTREGPLCDELIRNVKFKILDAVVAQEPLHRGGGQIIPTARRVVYSAFLMATPRLMEPYYFVEVQAPADCVSAVYTVLARRRGHVTQDAPIPGSPLYTIKAFIPAIDSFGFETDLRTHTQGQAFSLSVFHHWQIVPGDPLDKSIVIRPLEPQPAPHLAREFMIKTRRRKGLSEDVSISKFFDDPMLLELAKQDVVLNYPM [EFTUD2] | -0.443 | 57.4 | 56.2 | -1.97 | -2.33 | 0.215
MDTEGFGELLQQAEQLAAETEGISELPHVERNLQEIQQAGERLRSRTLTRTSQETADVKASVLLGSRGLDISHISQRLESLSAATTFEPLEPVKDTDIQGFLKNEKDNALLSAIEESRKRTFGMAEEYHRESMLVEWEQVKQRILHTLLASGEDALDFTQESEPSYISDVGPPGRSSLDNIEMAYARQIYIYNEKIVNGHLQPNLVDLCASVAELDDKSISDMWTMVKQMTDVLLTPATDALKNRSSVEVRMEFVRQALAYLEQSYKNYTLVTVFGNLHQAQLGGVPGTYQLVRSFLNIKLPAPLPGLQDGEVEGHPVWALIYYCMRCGDLLAASQVVNRAQHQLGEFKTWFQEYMNSKDRRLSPATENKLRLHYRRALRNNTDPYKRAVYCIIGRCDVTDNQSEVADKTEDYLWLKLNQVCFDDDGTSSPQDRLTLSQFQKQLLEDYGESHFTVNQQPFLYFQVLFLTAQFEAAVAFLFRMERLRCHAVHVALVLFELKLLLKSSGQSAQLLSHEPGDPPCLRRLNFVRLLMLYTRKFESTDPREALQYFYFLRDEKDSQGENMFLRCVSELVIESREFDMILGKLENDGSRKPGVIDKFTSDTKPIINKVASVAENKGLFEEAAKLYDLAKNADKVLELMNKLLSPVVPQISAPQSNKERLKNMALSIAERYRAQGISANKFVDSTFYLLLDLITFFDEYHSGHIDRAFDIIERLKLVPLNQESVEERVAAFRNFSDEIRHNLSEVLLATMNILFTQFKRLKGTSPSSSSRPQRVIEDRDSQLRSQARTLITFAGMIPYRTSGDTNARLVQMEVLMN [NUP93] | -0.149 | 51.9 | 48.3 | -3.26 | -4.55 | 0.117
MDTPPLSDSESESDESLVTDRELQDAFSRGLLKPGLNVVLEGPKKAVNDVNGLKQCLAEFKRDLEWVERLDVTLGPVPEIGGSEAPAPQNKDQKAVDPEDDFQREMSFYRQAQAAVLAVLPRLHQLKVPTKRPTDYFAEMAKSDLQMQKIRQKLQTKQAAMERSEKAKQLRALRKYGKKVQTEVLQKRQQEKAHMMNAIKKYQKGFSDKLDFLEGDQKPLAQRKKAGAKGQQMRKGPSAKRRYKNQKFGFGGKKKGSKWNTRESYDDVSSFRAKTAHGRGLKRPGKKGSNKRPGKRTREKMKNRTH [EBNA1BP2] | -1.71 | 54 | 53.4 | 0.765 | 0.121 | 1.38
